No end group written: not given here.

T1: Apc2, cullin subunit in the S. cerevisiae APC/C (S. cerevisiae, UniProt Q12440 1-853)
T1 sequence: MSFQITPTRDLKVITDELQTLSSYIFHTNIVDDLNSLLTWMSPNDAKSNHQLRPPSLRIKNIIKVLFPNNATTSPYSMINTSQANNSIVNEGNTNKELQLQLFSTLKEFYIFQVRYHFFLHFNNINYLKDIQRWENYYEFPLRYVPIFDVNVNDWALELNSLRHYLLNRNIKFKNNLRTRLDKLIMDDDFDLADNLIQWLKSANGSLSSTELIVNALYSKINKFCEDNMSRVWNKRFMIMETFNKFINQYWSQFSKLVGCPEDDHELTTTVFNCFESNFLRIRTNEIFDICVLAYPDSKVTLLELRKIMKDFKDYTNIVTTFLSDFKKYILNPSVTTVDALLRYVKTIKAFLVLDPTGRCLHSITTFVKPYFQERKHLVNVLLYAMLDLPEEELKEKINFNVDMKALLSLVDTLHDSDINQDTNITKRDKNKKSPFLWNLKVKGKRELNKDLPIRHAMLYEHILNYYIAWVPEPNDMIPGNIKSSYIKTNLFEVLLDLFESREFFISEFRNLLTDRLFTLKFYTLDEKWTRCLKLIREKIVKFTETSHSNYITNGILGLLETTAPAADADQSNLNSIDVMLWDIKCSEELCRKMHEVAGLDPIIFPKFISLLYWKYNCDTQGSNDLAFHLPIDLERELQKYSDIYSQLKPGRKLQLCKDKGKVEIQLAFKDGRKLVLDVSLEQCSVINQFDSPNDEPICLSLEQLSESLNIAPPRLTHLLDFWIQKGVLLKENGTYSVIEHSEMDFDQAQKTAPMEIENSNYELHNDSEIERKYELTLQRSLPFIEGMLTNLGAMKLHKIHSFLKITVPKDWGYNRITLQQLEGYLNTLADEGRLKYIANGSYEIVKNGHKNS

B1: Apc3/Cdc27, TPR subunit in the S. cerevisiae APC/C (natural protein)
chain: MAVNPELAPFTLSRGIPSFDDQALSTIIQLQDCIQQAIQQLNYSTAEFLAELLYAECSILDKSSVYWSDAVYLYALSLFLNKSYHTAFQISKEFKEYHLGIAYIFGRCALQLSQGVNEAILTLLSIINVFSSNSSNTRINMVLNSNLVHIPDLATLNCLLGNLYMKLDHSKEGAFYHSEALAINPYLWESYEAICKMRATVDLKRVFFDIAGKKSNSHNNNAASSFPSTSLSHFEPRSQPSLYSKTNKNGNNNINNNVNTLFQSSNSPPSTSASSFSSIQHFSRSQQQQANTSIRTCQNKNTQTPKNPAINSKTSSALPNNISMNLVSPSSKQPTISSLAKVYNRNKLLTTPPSKLLNNDRNHQNNNNNNNNNNNNNNNNNNNNNNNNIINKTTFKTPRNLYSSTGRLTTSKKNPRSLIISNSILTSDYSITLPEIMYNFALILRSSSQYNSFKAIRLFESQIPSHIKDTMPWCLVQLGKLHFEIINYDMSLKYFNRLKDLQPARVKDMEIFSTLLWHLHDKVKSSNLANGLMDTMPNKPETWCCIGNLLSLQKDHDAAIKAFEKATQLDPNFAYAYTLQGHEHSSNDSSDSAKTCYRKALACDPQHYNAYYGLGTSAMKLGQYEEALLYFEKARSINPVNVVLICCCGGSLEKLGYKEKALQYYELACHLQPTSSLSKYKMGQLLYSMTRYNVALQTFEELVKLVPDDATAHYLLGQTYRIVGRKKDAIKELTVAMNLDPKGNQVIIDELQKCHMQE
B2: S. cerevisiae His6-Cdh1 (natural protein)
chain: MSTNLNPFMNNTPSSSPLKGSESKRVSKRPISSSSSASLLSSPSRRSRPSTVYGDRYIPSRTDIDFNSIVSISSMASVPALNPSSTEDQVEYQKERQAHETYNTLLKNELFGEMLSKDTVGSESSIDRIKNTRPSTRGNVHAENTTRHGYELERVSTPPPEAAGLEEFSPHSTPVTPRRLFTSQQDEITRPSSNSVRGASLLTYQQRKGRRLSAASLLQSQFFDSMSPVRPDSKQLLLSPGKQFRQIAKVPYRVLDAPSLADDFYYSLIDWSSTDVLAVALGKSIFLTDNNTGDVVHLCDTENEYTSLSWIGAGSHLAVGQANGLVEIYDVMKRKCIRTLSGHIDRVACLSWNNHVLTSGSRDHRILHRDVRMPDPFFETIESHTQEVCGLKWNVADNKLASGGNDNVVHVYEGTSKSPILTFDEHKAAVKAMAWSPHKRGVLATGGGTADRRLKIWNVNTSIKMSDIDSGSQICNMVWSKNTNELVTSHGYSKYNLTLWDCNSMDPIAILKGHSFRVLHLTLSNDGTTVVSGAGDETLRYWKLFDKPKAKVQPNSLIFDAFNQIR

The data set “cryo-EM structure” concerns the molecule itself. In words: cryo-EM structure.
Data set [1] has as its target APC/C in complex with Cdh1 (APC/C^Cdh1), budding yeast (S. cerevisiae) (UniProt P53886).
The target of the data set “S. cerevisiae His6-Cdh1” is B2. Briefly: cryo-EM structure.
Data set [2] concerns the target T1, Apc2, cullin subunit in the S. …. In words: cryo-EM structure.
The target of data set [3] is B1. In words: cryo-EM structure.

On to B1, for which the binding result in “cryo-EM structure” is listed as “binds”.

With NVPKKRHALDDVSNFHNK (not fully specified) [18-residue D-box peptide modelled on cyclin B (S. pombe Cdc13)], the inhibition of APC/C^Cdh1 ubiquitylation of Clb2 by the peptide in data set [1] stood at 0.1 mM. Also, the binding result with S. cerevisiae His6-Cdh1 was “binds”. B2: the binding result in data set [2] and in data set [3] was “binds” each time.

The values are drawn from PMC3037847 (Nature, 2010).
